One assay deals with Rhesus monkeys. In words: anticoagulatory effect following intravenous administration to Rhesus monkeys. The format is in vivo. The source says:
Amino acid analysis of the product conforms with the composition which is to be expected from the amino acid sequence. Edman sequence analysis indicates 2 N-terminal amino acid residues Leu(1) and Asn(37).

In assay [1] the target is recombinantly obtained desulfato-Tyr63 hirudin (leech (Hirudo medicinalis), made recombinantly in yeast cells).

Regarding “(hirudin 1-63)-Thr(64)-Arg(65)-Arg(66)--OH [Example 3]”, the “anticoagulatory effect (activity compared with starting hirudin)” value in the assay with Rhesus monkeys (intravenous administration to Rhesus monkeys (1 mg/kg), test conditions per Jurgens 1952) is “virtually identical to that of the starting hirudin”.

On to “chymotrypsin (Merck, Darmstadt) (enzyme)”, for which the transpeptidation at Tyr63; composition of the crude product by analytical HPLC in assay [1] worked out at 65.2%.

B1: (hirudin 1-36)-Thr, (hirudin 37-65) (protein)
chain 1: LTYTDCTESGQNLCLCEGSNVCGQGNKCILGSDGEKT
chain 2: NQCVTGEGTPKPQSHNDGDFEEIPEEYLQ
In the case of B1, the “anticoagulatory effect (activity compared with starting hirudin)” value in the assay with Rhesus monkeys (intravenous administration to Rhesus monkeys, dose not given) is “virtually identical to that of the starting hirudin”.

The record behind these values is US5674838A, “Hirudin derivatives and a process for their preparation” (Hoechst Aktiengesellschaft, priority 1994, dated 1997).
